# Experimental data published in patent publication US9937235B2, “Lipidated peptides as anti-obesity agents” (USTAV ORGANICKE CHEMIE A BIOCHEMIE AKADEMIE VED CR, V.V.I, priority 2012, dated 2018).
# Where no end group is shown, it is not given here. [ ]: non-standard residue; d: D form. The star is where a group is joined. 1Nal = N[C@@H](Cc1cccc2ccccc12)C(=O)O; Palmitoyl = CCCCCCCCCCCCCCCC(=O)*; Myristoyl = CCCCCCCCCCCCCC(=O)*; Nle = CCCC[C@H](N)C(=O)O; Octanoyl = CCCCCCCC(=O)*; Dap = NC[C@H](N)C(=O)O
# T1: rat PrRP receptor in RC-4B/C cells (rat, UniProt Q64121 1-370)
# T1 construct: whole, on cells; also called the rat receptor; GPR10
# T1 sequence (looked up): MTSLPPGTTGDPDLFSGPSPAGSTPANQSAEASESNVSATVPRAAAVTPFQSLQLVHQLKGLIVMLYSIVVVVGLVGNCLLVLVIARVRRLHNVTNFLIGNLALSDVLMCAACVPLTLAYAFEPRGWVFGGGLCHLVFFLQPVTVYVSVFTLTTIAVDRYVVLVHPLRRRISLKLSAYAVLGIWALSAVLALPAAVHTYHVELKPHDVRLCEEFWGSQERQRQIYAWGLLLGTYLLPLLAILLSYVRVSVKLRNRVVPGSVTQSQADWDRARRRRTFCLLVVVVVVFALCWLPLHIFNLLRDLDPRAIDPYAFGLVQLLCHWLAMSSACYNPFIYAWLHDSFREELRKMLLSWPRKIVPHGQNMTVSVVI
# Tests used:
# [1] = target: T1, rat PrRP receptor in RC-4B/C cells; test: competition with 125I-rat PrRP31 on RC-4B/C cells; Ki by Cheng-Prusoff
# Description: (§1) The rat pituitary cell line RC-4B/C (ATCC, Manassas, USA) was grown on 24-well plates which had their bottom coated with polyethyleneimine. The cells were grown to the optimal density of 300-450 thousand per well.
# (§2) Plates were incubated for 60 minutes at room temperature. After incubation, the cells were solubilized in 0.1 mol/l solution of NaOH and the radioactivity bound to the cells was counted using a γ-counter. The experiments were performed in duplicate and repeated at least three times.
# For evaluation of competitive binding experiments, the program Graph Pad Prism Software (San Diego, Calif., USA) was used. A method of nonlinear regression assuming one-site binding was used.
# [2] = target: T1, rat PrRP receptor in RC-4B/C cells; test: competition with 125I-rat PrRP31 on RC-4B/C cells
# Description: as §1, §2
Binder,Ki [1] [nM],% of PrRP31 binding [2] [%]
SRAHQHSMETRTPDINPAWYTGRGIRPVGRF-NH2 (also called prolactin-releasing peptide) [Rat PrRP31],4.93,100
"[Dap](Octanoyl)RAHQHS[Nle]ETRTPDINPAWYTGRGIRPVGRF-NH2 (N-terminus assumed; SMILES CCCCCCCC(=O)NC[C@H](N)C(=O)N[C@@H](CCCNC(=N)N)C(=O)N[C@@H](C)C(=O)N[C@@H](Cc1c[nH]cn1)C(=O)N[C@@H](CCC(N)=O)C(=O)N[C@@H](Cc1c[nH]cn1)C(=O)N[C@@H](CO)C(=O)N[C@@H](CCCC)C(=O)N[C@@H](CCC(=O)O)C(=O)N[C@H](C(=O)N[C@@H](CCCNC(=N)N)C(=O)N[C@H](C(=O)N1CCC[C@H]1C(=O)N[C@@H](CC(=O)O)C(=O)N[C@H](C(=O)N[C@@H](CC(N)=O)C(=O)N1CCC[C@H]1C(=O)N[C@@H](C)C(=O)N[C@@H](Cc1c[nH]c2ccccc12)C(=O)N[C@@H](Cc1ccc(O)cc1)C(=O)N[C@H](C(=O)NCC(=O)N[C@@H](CCCNC(=N)N)C(=O)NCC(=O)N[C@H](C(=O)N[C@@H](CCCNC(=N)N)C(=O)N1CCC[C@H]1C(=O)N[C@H](C(=O)NCC(=O)N[C@@H](CCCNC(=N)N)C(=O)N[C@@H](Cc1ccccc1)C(N)=O)C(C)C)[C@@H](C)CC)[C@@H](C)O)[C@@H](C)CC)[C@@H](C)O)[C@@H](C)O, analog of rat PrRP31; also called [Dpr(oct)^1]PrRP31) [analog no. 2]",2.86,172
"[Dap](Myristoyl)RAHQHS[Nle]ETRTPDINPAWYTGRGIRPVGRF-NH2 (N-terminus assumed; SMILES CCCCCCCCCCCCCC(=O)NC[C@H](N)C(=O)N[C@@H](CCCNC(=N)N)C(=O)N[C@@H](C)C(=O)N[C@@H](Cc1c[nH]cn1)C(=O)N[C@@H](CCC(N)=O)C(=O)N[C@@H](Cc1c[nH]cn1)C(=O)N[C@@H](CO)C(=O)N[C@@H](CCCC)C(=O)N[C@@H](CCC(=O)O)C(=O)N[C@H](C(=O)N[C@@H](CCCNC(=N)N)C(=O)N[C@H](C(=O)N1CCC[C@H]1C(=O)N[C@@H](CC(=O)O)C(=O)N[C@H](C(=O)N[C@@H](CC(N)=O)C(=O)N1CCC[C@H]1C(=O)N[C@@H](C)C(=O)N[C@@H](Cc1c[nH]c2ccccc12)C(=O)N[C@@H](Cc1ccc(O)cc1)C(=O)N[C@H](C(=O)NCC(=O)N[C@@H](CCCNC(=N)N)C(=O)NCC(=O)N[C@H](C(=O)N[C@@H](CCCNC(=N)N)C(=O)N1CCC[C@H]1C(=O)N[C@H](C(=O)NCC(=O)N[C@@H](CCCNC(=N)N)C(=O)N[C@@H](Cc1ccccc1)C(N)=O)C(C)C)[C@@H](C)CC)[C@@H](C)O)[C@@H](C)CC)[C@@H](C)O)[C@@H](C)O, analog of rat PrRP31; also called [Dpr(myr)^1]PrRP31; myristoylated analog [Dpr^1]PrRP31 (No. 5)) [analog no. 5]",0.82,601
"[Dap](Palmitoyl)RAHQHS[Nle]ETRTPDINPAWYTGRGIRPVGRF-NH2 (N-terminus assumed; SMILES CCCCCCCCCCCCCCCC(=O)NC[C@H](N)C(=O)N[C@@H](CCCNC(=N)N)C(=O)N[C@@H](C)C(=O)N[C@@H](Cc1c[nH]cn1)C(=O)N[C@@H](CCC(N)=O)C(=O)N[C@@H](Cc1c[nH]cn1)C(=O)N[C@@H](CO)C(=O)N[C@@H](CCCC)C(=O)N[C@@H](CCC(=O)O)C(=O)N[C@H](C(=O)N[C@@H](CCCNC(=N)N)C(=O)N[C@H](C(=O)N1CCC[C@H]1C(=O)N[C@@H](CC(=O)O)C(=O)N[C@H](C(=O)N[C@@H](CC(N)=O)C(=O)N1CCC[C@H]1C(=O)N[C@@H](C)C(=O)N[C@@H](Cc1c[nH]c2ccccc12)C(=O)N[C@@H](Cc1ccc(O)cc1)C(=O)N[C@H](C(=O)NCC(=O)N[C@@H](CCCNC(=N)N)C(=O)NCC(=O)N[C@H](C(=O)N[C@@H](CCCNC(=N)N)C(=O)N1CCC[C@H]1C(=O)N[C@H](C(=O)NCC(=O)N[C@@H](CCCNC(=N)N)C(=O)N[C@@H](Cc1ccccc1)C(N)=O)C(C)C)[C@@H](C)CC)[C@@H](C)O)[C@@H](C)CC)[C@@H](C)O)[C@@H](C)O, analog of rat PrRP31; also called [Dpr(palm)^1]PrRP31) [analog no. 6]",0.46,1070
"[Dap]RAHQHS[Nle]ETRTPDINPAWYTGRGIRPVGRF-NH2 (N-terminus assumed; SMILES CCCC[C@H](NC(=O)[C@H](CO)NC(=O)[C@H](Cc1c[nH]cn1)NC(=O)[C@H](CCC(N)=O)NC(=O)[C@H](Cc1c[nH]cn1)NC(=O)[C@H](C)NC(=O)[C@H](CCCNC(=N)N)NC(=O)[C@@H](N)CN)C(=O)N[C@@H](CCC(=O)O)C(=O)N[C@H](C(=O)N[C@@H](CCCNC(=N)N)C(=O)N[C@H](C(=O)N1CCC[C@H]1C(=O)N[C@@H](CC(=O)O)C(=O)N[C@H](C(=O)N[C@@H](CC(N)=O)C(=O)N1CCC[C@H]1C(=O)N[C@@H](C)C(=O)N[C@@H](Cc1c[nH]c2ccccc12)C(=O)N[C@@H](Cc1ccc(O)cc1)C(=O)N[C@H](C(=O)NCC(=O)N[C@@H](CCCNC(=N)N)C(=O)NCC(=O)N[C@H](C(=O)N[C@@H](CCCNC(=N)N)C(=O)N1CCC[C@H]1C(=O)N[C@H](C(=O)NCC(=O)N[C@@H](CCCNC(=N)N)C(=O)N[C@@H](Cc1ccccc1)C(N)=O)C(C)C)[C@@H](C)CC)[C@@H](C)O)[C@@H](C)CC)[C@@H](C)O)[C@@H](C)O, analog of rat PrRP31; also called [Dpr^1]PrRP31) [analog no. 1]",3.74,132
"[Dap](Octanoyl)RAHQHS[Nle]ETRTPDINPAWYTGRGIRPVGR[1Nal]-NH2 (N-terminus assumed; SMILES CCCCCCCC(=O)NC[C@H](N)C(=O)N[C@@H](CCCNC(=N)N)C(=O)N[C@@H](C)C(=O)N[C@@H](Cc1c[nH]cn1)C(=O)N[C@@H](CCC(N)=O)C(=O)N[C@@H](Cc1c[nH]cn1)C(=O)N[C@@H](CO)C(=O)N[C@@H](CCCC)C(=O)N[C@@H](CCC(=O)O)C(=O)N[C@H](C(=O)N[C@@H](CCCNC(=N)N)C(=O)N[C@H](C(=O)N1CCC[C@H]1C(=O)N[C@@H](CC(=O)O)C(=O)N[C@H](C(=O)N[C@@H](CC(N)=O)C(=O)N1CCC[C@H]1C(=O)N[C@@H](C)C(=O)N[C@@H](Cc1c[nH]c2ccccc12)C(=O)N[C@@H](Cc1ccc(O)cc1)C(=O)N[C@H](C(=O)NCC(=O)N[C@@H](CCCNC(=N)N)C(=O)NCC(=O)N[C@H](C(=O)N[C@@H](CCCNC(=N)N)C(=O)N1CCC[C@H]1C(=O)N[C@H](C(=O)NCC(=O)N[C@@H](CCCNC(=N)N)C(=O)N[C@@H](Cc1cccc2ccccc12)C(N)=O)C(C)C)[C@@H](C)CC)[C@@H](C)O)[C@@H](C)CC)[C@@H](C)O)[C@@H](C)O, analog of rat PrRP31) [analog no. 8]",39.2,13
"[Dap](Myristoyl)RAHQHS[Nle]ETRTPDINPAWYTGRGIRPVGR[1Nal]-NH2 (N-terminus assumed; SMILES CCCCCCCCCCCCCC(=O)NC[C@H](N)C(=O)N[C@@H](CCCNC(=N)N)C(=O)N[C@@H](C)C(=O)N[C@@H](Cc1c[nH]cn1)C(=O)N[C@@H](CCC(N)=O)C(=O)N[C@@H](Cc1c[nH]cn1)C(=O)N[C@@H](CO)C(=O)N[C@@H](CCCC)C(=O)N[C@@H](CCC(=O)O)C(=O)N[C@H](C(=O)N[C@@H](CCCNC(=N)N)C(=O)N[C@H](C(=O)N1CCC[C@H]1C(=O)N[C@@H](CC(=O)O)C(=O)N[C@H](C(=O)N[C@@H](CC(N)=O)C(=O)N1CCC[C@H]1C(=O)N[C@@H](C)C(=O)N[C@@H](Cc1c[nH]c2ccccc12)C(=O)N[C@@H](Cc1ccc(O)cc1)C(=O)N[C@H](C(=O)NCC(=O)N[C@@H](CCCNC(=N)N)C(=O)NCC(=O)N[C@H](C(=O)N[C@@H](CCCNC(=N)N)C(=O)N1CCC[C@H]1C(=O)N[C@H](C(=O)NCC(=O)N[C@@H](CCCNC(=N)N)C(=O)N[C@@H](Cc1cccc2ccccc12)C(N)=O)C(C)C)[C@@H](C)CC)[C@@H](C)O)[C@@H](C)CC)[C@@H](C)O)[C@@H](C)O, analog of rat PrRP31; also called myristoylated analog [Dpr^1 Nal^31]PrRP31 (No. 9)) [analog no. 9]",2.95,167
"[Dap]RAHQHS[Nle]ETRTPDINPAWYTGRGIRPVGR[1Nal]-NH2 (N-terminus assumed; SMILES CCCC[C@H](NC(=O)[C@H](CO)NC(=O)[C@H](Cc1c[nH]cn1)NC(=O)[C@H](CCC(N)=O)NC(=O)[C@H](Cc1c[nH]cn1)NC(=O)[C@H](C)NC(=O)[C@H](CCCNC(=N)N)NC(=O)[C@@H](N)CN)C(=O)N[C@@H](CCC(=O)O)C(=O)N[C@H](C(=O)N[C@@H](CCCNC(=N)N)C(=O)N[C@H](C(=O)N1CCC[C@H]1C(=O)N[C@@H](CC(=O)O)C(=O)N[C@H](C(=O)N[C@@H](CC(N)=O)C(=O)N1CCC[C@H]1C(=O)N[C@@H](C)C(=O)N[C@@H](Cc1c[nH]c2ccccc12)C(=O)N[C@@H](Cc1ccc(O)cc1)C(=O)N[C@H](C(=O)NCC(=O)N[C@@H](CCCNC(=N)N)C(=O)NCC(=O)N[C@H](C(=O)N[C@@H](CCCNC(=N)N)C(=O)N1CCC[C@H]1C(=O)N[C@H](C(=O)NCC(=O)N[C@@H](CCCNC(=N)N)C(=O)N[C@@H](Cc1cccc2ccccc12)C(N)=O)C(C)C)[C@@H](C)CC)[C@@H](C)O)[C@@H](C)CC)[C@@H](C)O)[C@@H](C)O, analog of rat PrRP31) [analog no. 7]",60.1,8
